Results taken from patent US20160115223A1.

What follows are substances tested against Aβ42 fibers (UniProt P05067) (assay: cell-based or functional assay).
Chain of Aβ42 fibers (P05067 672-713 limits assumed): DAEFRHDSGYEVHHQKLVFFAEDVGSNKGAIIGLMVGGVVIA

EC50, cellulose acetate filter retardation assay (disaggregation) [nM] | Substance
100 | N1-N2-hIgG1-Fc fusion protein (SEQ ID NO:1) (from UniProt O34714 1-385)

What follows are substances tested against Aβ42 fibers (UniProt P05067) (assay: ELISA, Aβ42 fibers on plate; IC50(variant)/IC50(SEQ ID NO: 3)).

Substance | IC50 Relative to SEQ ID NO: 3
N1-N2-human IgG Fc fusion protein of SEQ ID NO: 3 with D178G (from UniProt P69168 19-274) | 0.2
N1-N2-human IgG Fc fusion protein of SEQ ID NO: 3 with D178S | 0.3
N1-N2-human IgG Fc fusion protein of SEQ ID NO: 3 with D178T | 0.4
N1-N2-human IgG Fc fusion protein of SEQ ID NO: 3 with F141D | 0.2
N1-N2-human IgG Fc fusion protein of SEQ ID NO: 3 with F141E (from UniProt P69168 19-274) | 0.2
N1-N2-human IgG Fc fusion protein of SEQ ID NO: 3 with G48R (from UniProt P69168 19-274) | 1.9
N1-N2-human IgG Fc fusion protein of SEQ ID NO: 3 with G48S | 1.2
N1-N2-human IgG Fc fusion protein of SEQ ID NO: 3 with G48T | 1
N1-N2-human IgG Fc fusion protein of SEQ ID NO: 3 with M135A (from UniProt P69168 19-274) | 0.4
N1-N2-human IgG Fc fusion protein of SEQ ID NO: 3 with M135G | 0.2
N1-N2-human IgG Fc fusion protein of SEQ ID NO: 3 with M135H (from UniProt P69168 19-274) | 0.1
N1-N2-human IgG Fc fusion protein of SEQ ID NO: 3 with M135N (from UniProt P69168 19-274) | 0.3
N1-N2-human IgG Fc fusion protein of SEQ ID NO: 3 with M176G | 0.3
N1-N2-human IgG Fc fusion protein of SEQ ID NO: 3 with M176K (from UniProt P69168 19-274) | 0.2
N1-N2-human IgG Fc fusion protein of SEQ ID NO: 3 with M176R | 0.2
N1-N2-human IgG Fc fusion protein of SEQ ID NO: 3 with R140D | 0.3
N1-N2-human IgG Fc fusion protein of SEQ ID NO: 3 with R140H | 0.2
N1-N2-human IgG Fc fusion protein of SEQ ID NO: 3 with S173P | 0.4
N1-N2-human IgG Fc fusion protein of SEQ ID NO: 3 with T51N | 0.5
N1-N2-human IgG Fc fusion protein of SEQ ID NO: 3 with T51Q | 0.8
N1-N2-human IgG Fc fusion protein of SEQ ID NO: 3 with T51R | 2
N1-N2-human IgG Fc fusion protein of SEQ ID NO: 3 with T56H | 0.77
N1-N2-human IgG Fc fusion protein of SEQ ID NO: 3 with T56R (from UniProt P69168 19-274) | 0.8
N1-N2-human IgG Fc fusion protein of SEQ ID NO: 3 with W181G | 0.5
N1-N2-human IgG Fc fusion protein of SEQ ID NO: 3 with W181H | 0.87

The next lines start with the values.

IC50 Relative to SEQ ID NO: 3 | Substance
0.6 | N1-N2-human IgG Fc fusion protein of SEQ ID NO: 3 with D178Q
1.8 | N1-N2-human IgG Fc fusion protein of SEQ ID NO: 3 with G48H
1.1 | N1-N2-human IgG Fc fusion protein of SEQ ID NO: 3 with G48K (from UniProt P69168 19-274)
0.5 | N1-N2-human IgG Fc fusion protein of SEQ ID NO: 3 with M135D (from UniProt P69168 19-274)
0.1 | N1-N2-human IgG Fc fusion protein of SEQ ID NO: 3 with M135R (from UniProt P69168 19-274)
0.4 | N1-N2-human IgG Fc fusion protein of SEQ ID NO: 3 with M176H
0.5 | N1-N2-human IgG Fc fusion protein of SEQ ID NO: 3 with M176N (from UniProt P69168 19-274)
0.2 | N1-N2-human IgG Fc fusion protein of SEQ ID NO: 3 with R140A
0.3 | N1-N2-human IgG Fc fusion protein of SEQ ID NO: 3 with R140E
0.2 | N1-N2-human IgG Fc fusion protein of SEQ ID NO: 3 with R140G (from UniProt P69168 19-274)
0.2 | N1-N2-human IgG Fc fusion protein of SEQ ID NO: 3 with S173G (from UniProt P69168 19-274)
0.8 | N1-N2-human IgG Fc fusion protein of SEQ ID NO: 3 with T51G (from UniProt P69168 19-274)
1.5 | N1-N2-human IgG Fc fusion protein of SEQ ID NO: 3 with T51H (from UniProt P69168 19-274)
2.5 | N1-N2-human IgG Fc fusion protein of SEQ ID NO: 3 with T51K
0.2 | N1-N2-human IgG Fc fusion protein of SEQ ID NO: 3 with T51P
0.1 | N1-N2-human IgG Fc fusion protein of SEQ ID NO: 3 with T56G
0.3 | N1-N2-human IgG Fc fusion protein of SEQ ID NO: 3 with W181K
0.3 | N1-N2-human IgG Fc fusion protein of SEQ ID NO: 3 with Y54H
0.07 | N1-N2-human IgG Fc fusion protein of SEQ ID NO: 3 with Y54P
